Results taken from PMC6527350 (Journal of molecular biology, 2019).

Target: the molecule itself
Assay: FRET or BRET

B1: PCNA-WC2-AEDANS (human PCNA N107W-T185C-C27M-W28F-C62M-C81S-C148S-C135S-C162S, labelled with AEDANS at C185) (natural protein)
chain: MFEARLVQGSILKKVLEALKDLINEAMFDISSSGVNLQSMDSSHVSLVQLTLRSEGFDTYRMDRNLAMGVNLTSMSKILKSAGNEDIITLRAEDNADTLALVFEAPWQEKVSDYEMKLMDLDVEQLGIPEQEYSSVVKMPSGEFARISRDLSHIGDAVVISSAKDGVKFSASGELGNGNIKLSQCSNVDKEEEAVTIEMNEPVQLTFALRYLNFFTKATPLSSTVTLSMSADVPLVVEYKIADMGHLKYYLAPKIEDEEGS
modifications: AEDANS on the cysteine at 185 (T185C), labelled with IAEDANS
  binding result: binds
